We go through 1 molecule from publication PMC11231100 (2024).

Test [1] has as its target T1, CD47 (human (endogenous in Jurkat and Reh), UniProt Q08722 19-323). The test can be described thus: FACS; competition with SIRPα-mFc on Reh cells (CD38high/CD47+).
The target in test [2] is T1, CD47. The test can be described thus: FACS; competition with SIRPα-mFc on Jurkat cells (CD38low/CD47+).

B1: IMM01 (SIRPα Fc fusion protein) (Fc fusion)
chain: EEELQVIQPDKSVLVAAGETATLRCTATSLIPVGPIQWFRGAGPGRELIYNQKEGHFPRVTTVSDLTKRNNMDFSIRIGNITPADAGTYYCVKFRKGSPDDVEFKSGAGTELSVRAKP
modifications: SIRPα IgV domain (SD1), limits by convention (complete V domain through its last strand, just before the first C1 domain); dimeric through an Fc that is left out; allelic variant and any engineered substitution not given
As to B1, the values for the IC50 in the test with CD47 [1] and with CD47 [2] were 0.216 µg/mL and 0.0977 µg/mL, respectively.
